According to patent US20240002504A1 (AKESO BIOPHARMA, published 2024):

Assays:
[1] = molecular target: T1, 293T-TIGIT cell membrane surface antigen TIGIT (human, UniProt Q495A1 22-244); experiment: FACS on 293T-TIGIT cells
T1 construct: whole, on cells; also called cell membrane surface TIGIT
T1 sequence (looked up): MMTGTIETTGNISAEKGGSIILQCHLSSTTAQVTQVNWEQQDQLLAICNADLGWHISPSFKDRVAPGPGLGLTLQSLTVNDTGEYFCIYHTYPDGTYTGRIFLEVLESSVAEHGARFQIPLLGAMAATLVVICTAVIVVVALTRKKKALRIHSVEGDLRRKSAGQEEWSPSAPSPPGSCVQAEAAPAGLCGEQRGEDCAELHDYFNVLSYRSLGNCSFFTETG
Protocol: The cells were diluted, 300 thousand cells were added to each well of a transparent V-bottomed 96-well plate, and 200 μL of 1% PBSA was added to each tube. The mixtures were centrifuged for 5 min, and the supernatants were discarded. […] The mixtures were centrifuged for 5 min, and the supernatants were discarded. The plate was washed twice. […] 200 μL of PBSA was added to each tube. The mixtures were centrifuged for 5 min, and the supernatants were discarded. The cells were resuspended by adding 200 μL of PBSA, and the suspensions were transferred into flow cytometry tubes to measure the mean fluorescence intensity of the cells at each concentration by a flow cytometer.

[2] = molecular target: T2, human TIGIT-mFc (human, UniProt Q495A1 22-141, limits assumed); experiment: competition ELISA vs CD155-hFc-Biotin (1 ug/mL), coated TIGIT-mFc
T2 construct: the whole entry NP_776160.2 is named; also called antigen TIGIT-mFc; not shown: Fc protein fragment of a mouse IgG (mFc)
T2 sequence (looked up): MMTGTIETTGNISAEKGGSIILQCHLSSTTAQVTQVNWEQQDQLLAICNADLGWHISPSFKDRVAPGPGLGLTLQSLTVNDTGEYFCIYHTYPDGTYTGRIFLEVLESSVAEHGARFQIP
Protocol: (§1) Experimental steps: a microplate was coated with TIGIT-mFc at 2 μg/mL, and incubated at 4° C. overnight. After incubation, the antigen-coated microplate was rinsed once with PBST, and then blocked with a PBST solution containing 1% BSA as a microplate blocking solution for 2 h. After blocking, the microplate was washed 3 times with PBST. The antibodies serially diluted with the PBST solution was added to the microplate. […] The microplate was incubated at 37° C. for 30 min, and then washed 3 times with PBST. After washing, SA-HRP working solution diluted in a ratio of 1:4000 was added, and the microplate was incubated at 37° C. for 30 min. After incubation, the plate was washed 4 times with PBST, TMB (Neogen, 308177) was added for chromogenesis in the dark for 5 min, and then a stop solution was added to terminate the chromogenic reaction. The microplate was put into a microplate reader immediately, and the OD value of each well in the microplate was read at 450 nm. The data were analyzed and processed by SoftMax Pro 6.2.1.

[3] = molecular target: T1, 293T-TIGIT cell membrane surface …; experiment: FACS competition vs CD155 (10 nM) on 293T-TIGIT cells
Protocol: (§2) The cells were diluted, 300 thousand cells were added to each well of a transparent V-bottomed 96-well plate, and 200 μL of 1% PBSA was added to each tube. The mixtures were centrifuged for 5 min, and the supernatants were discarded. […] The plate was incubated on ice for 30 min. […] 200 μL of 1% PBSA was then added to each tube. The mixtures were centrifuged for 5 […], and the supernatants were discarded. The plate was washed twice. APC goat anti-mouse IgG (minimal x-reactivity) antibody (diluted 300-fold with PBSA) was added to each sample, and the mixtures were incubated on ice in the dark for 40 min. 200 μL of PBSA was added to each tube. The mixtures were centrifuged for 5 min, and the supernatants were discarded. The cells were resuspended by adding 200 μL of PBSA, and the suspensions were transferred into flow cytometry tubes to measure the mean fluorescence intensity of the cells at each concentration by a flow cytometer.

[4] = molecular target: T2, human TIGIT-mFc; experiment: competition ELISA vs CD155-hFc-Biotin (1 ug/mL), coated TIGIT-mFc; remark: listed apart in the source
Protocol: as §1

[5] = molecular target: T2, human TIGIT-mFc; experiment: BLI (Fortebio), TIGIT-mFc on AMC sensor, Ab 0.06-5 nM, 37 C, 1:1 fit
Protocol: The sample dilution buffer was PBS (0.02% Tween-20, 0.1% BSA, pH 7.4). TIGIT-mFc was immobilized on an AMC sensor at a concentration of 3 μg/mL for 50 s, and the sensor was equilibrated in the buffer for 60 s. The TIGIT-mFc immobilized on the sensor was allowed to bind to antibody at concentrations of 0.06-5 nM (three-fold dilutions) for 120 s, and the protein was dissociated in the buffer for 300 s. The sensor was regenerated with 10 mM glycine solution (pH=1.7). The detection temperature was 37° C., the detection frequency was 0.3 Hz, and the sample plate shaking rate was 1000 rpm. The data were analyzed by 1:1 model fitting to obtain affinity constants.

[6] = molecular target: T2, human TIGIT-mFc; experiment: ELISA, TIGIT-mFc captured on goat anti-mouse IgG Fc
Protocol: (§3) Experimental steps: a microplate was coated with goat anti-mouse IgG Fc at 2 μg/mL, and incubated at 4° C. for 16 h. After incubation, the microplate coated with goat anti-mouse IgG Fc was washed once with PBST, and then blocked with a PBST solution containing 1% BSA as a microplate blocking solution for 2 h. After blocking, the microplate was washed 3 times with PBST. Then, 1 μg/mL antigen human TIGIT-mFc was added, and the plate was incubated at 37° C. for 30 min and then washed 3 times with PBST. The antibodies serially diluted with the PBST solution were added to the wells of the microplate. The microplate containing the test antibodies was incubated at 37° C. for 30 min, and then washed 3 times with PBST. After washing, HRP-labeled goat anti-human IgG Fc secondary antibody working solution diluted in a ratio of 1:5000 was added, and the microplate was incubated at 37° C. for 30 min. After incubation, the plate was washed 4 times with PBST, TMB (Neogen, 308177) was added for chromogenesis in the dark for 4 min, and then a stop solution was added to terminate the chromogenic reaction. The microplate was put into a microplate reader immediately, and the OD value of each well in the microplate was read at 450 nm. The data were analyzed and processed by SoftMax Pro 6.2.1.

[7] = molecular target: T1, 293T-TIGIT cell membrane surface …; experiment: FACS competition vs CD112 (30 nM) on 293T-TIGIT cells
Protocol: as §2

[8] = molecular target: T2, human TIGIT-mFc; experiment: ELISA, TIGIT-mFc captured on goat anti-mouse IgG Fc; remark: listed apart in the source
Protocol: as §3

[9] = molecular target: T2, human TIGIT-mFc; experiment: indirect ELISA screening with human TIGIT-mFc as antigen

Binder | EC50 [1] [nM] | EC50 [2] [nM] | EC50 [3] [nM] | EC50 [4] [nM] | Kd [5] [nM] | Maximum signal height of analyte [5] [nm] | S E (kdis) [5] [s⁻¹] | S E (kon) [5] [M⁻¹ s⁻¹] | koff [5] [s⁻¹] | kon [5] [M⁻¹ s⁻¹] | EC50 [6] [nM] | EC50 [7] [nM] | EC50 [8] [nM] | binding result [9]
RG6058 (antibody, V domains shown) VH: EVQLQQSGPGLVKPSQTLSLTCAISGDSVSSNSAAWNWIRQSPSRGLEWLGKTYYRFKWYSDYAVSVKGRITINPDTSKNQFSLQLNSVTPEDTAVFYCTRESTTYDLLAGPFDYWGQGTLVTVSS VL: not shown | 1.26 | 0.254 | 1.21 | 0.236 | 0.0316 | 0.16 | 3.46e-05 | 184000 | 0.000144 | 4.56e+06 | 0.039 | 1.22 | 0.036 | –
26B12 (antibody, V domains shown, Murine hybridoma antibody; also called monoclonal antibody secreted by hybridoma cell line LT019) VH: EVQLQESGPGLVKPSQSLSLTCTVTGHSFTSDYAWNWIRQFPGNRLEWMGYISYSDSTNYNPSLKSRISITRDTSKNQFFLQMNSVTTEDTATYYCARLDYGNYGGAMDYWGQGTSVTVSS VL: DIVLTQSHEFMSTSLRDRVSITCKSSQHVSTAVAWYQQKPGQSPKLLIYSASYRYTGVPDRFTGSGSGTDFTFTISSVKAEDLAVYYCQQHYITPWTFGGGTKLEIK | – | – | – | – | – | – | – | – | – | – | – | – | – | binds
